# Reference: publication PMC8760513, “Mechanistic details of the actinobacterial lyase-catalyzed degradation reaction of 2-hydroxyisobutyryl-CoA” (The Journal of Biological Chemistry, 2021)
# B1: AcHACL (Actinomycetospora chiangmaiensis DSM 45062) (protein)
# chain: MADRQDAERSGAGPARQSVPVASLVAEFLQEHGVDRVFGLQGGHIQPIWDQLARRGVRIVDVRDEGSAVHMAHAHTELTGQTAVAMVTAGPGVTNTVTAVANASVSRIPLLVIGGCPPIPQSNMGPLQDIPHTAILEPITRLARTLRSADQVLREFDEAWARASGDRGEPGPVYLEIPTDVLRRDVPPALQMREHLRAKPKRRPQPHPDDVAAVADLIRAAEKPAIISGRGARTTDGTDLVRLLDASGAAYLDTQESRGLVPDSHPAAVGSARSAVMRDTDLLITVGRQLDYQLGMGSPAVFPHAKVVRIADTASELIDNRRGEVEILAEPGAALAAIADALKDHTPDTSWRDELKAKHRKRAEDYRQALHSTENGADGHIHPNRIFGALDALDGDVLDLGETIMIADGGDLLSFGRLGITKARRYLDAGAFGCLGVATPFAIGAALAYPDRPVVAVTGDGAFGITATEIDTAVRHDAKIVVIVSNNRAWNIERYDQAENYGLVVGTDLADSDYAGVARAFGAHGERVTDPAELEGAIRRALANAPALVDVVTTQDAASPDSGKGLGFVPDYQALTPWNDAEVARRQEGI
# B2: AcHACL (Actinomycetospora chiangmaiensis DSM 45062; E493A) (protein)
# chain: MADRQDAERSGAGPARQSVPVASLVAEFLQEHGVDRVFGLQGGHIQPIWDQLARRGVRIVDVRDEGSAVHMAHAHTELTGQTAVAMVTAGPGVTNTVTAVANASVSRIPLLVIGGCPPIPQSNMGPLQDIPHTAILEPITRLARTLRSADQVLREFDEAWARASGDRGEPGPVYLEIPTDVLRRDVPPALQMREHLRAKPKRRPQPHPDDVAAVADLIRAAEKPAIISGRGARTTDGTDLVRLLDASGAAYLDTQESRGLVPDSHPAAVGSARSAVMRDTDLLITVGRQLDYQLGMGSPAVFPHAKVVRIADTASELIDNRRGEVEILAEPGAALAAIADALKDHTPDTSWRDELKAKHRKRAEDYRQALHSTENGADGHIHPNRIFGALDALDGDVLDLGETIMIADGGDLLSFGRLGITKARRYLDAGAFGCLGVATPFAIGAALAYPDRPVVAVTGDGAFGITATEIDTAVRHDAKIVVIVSNNRAWNIARYDQAENYGLVVGTDLADSDYAGVARAFGAHGERVTDPAELEGAIRRALANAPALVDVVTTQDAASPDSGKGLGFVPDYQALTPWNDAEVARRQEGI
# B3: AcHACL (Actinomycetospora chiangmaiensis DSM 45062; E493Q) (protein)
# chain: MADRQDAERSGAGPARQSVPVASLVAEFLQEHGVDRVFGLQGGHIQPIWDQLARRGVRIVDVRDEGSAVHMAHAHTELTGQTAVAMVTAGPGVTNTVTAVANASVSRIPLLVIGGCPPIPQSNMGPLQDIPHTAILEPITRLARTLRSADQVLREFDEAWARASGDRGEPGPVYLEIPTDVLRRDVPPALQMREHLRAKPKRRPQPHPDDVAAVADLIRAAEKPAIISGRGARTTDGTDLVRLLDASGAAYLDTQESRGLVPDSHPAAVGSARSAVMRDTDLLITVGRQLDYQLGMGSPAVFPHAKVVRIADTASELIDNRRGEVEILAEPGAALAAIADALKDHTPDTSWRDELKAKHRKRAEDYRQALHSTENGADGHIHPNRIFGALDALDGDVLDLGETIMIADGGDLLSFGRLGITKARRYLDAGAFGCLGVATPFAIGAALAYPDRPVVAVTGDGAFGITATEIDTAVRHDAKIVVIVSNNRAWNIQRYDQAENYGLVVGTDLADSDYAGVARAFGAHGERVTDPAELEGAIRRALANAPALVDVVTTQDAASPDSGKGLGFVPDYQALTPWNDAEVARRQEGI
# Substrate: CC(C)(O)C(=O)SCCNC(=O)CCNC(=O)[C@H](O)C(C)(C)COP(=O)(O)OP(=O)(O)OC[C@H]1O[C@@H](n2cnc3c(N)ncnc32)[C@H](O)[C@@H]1OP(=O)(O)O
# Assay: purified protein
# Conditions: lyase direction, 37 °C, pH 7.2, 100 mM potassium phosphate, 10% glycerol, 0.2 mM ThDP, 0.2 mM ADP, 5 mM MgCl2, complex structure with dzThDP
Protein,Km [µM],Vmax [µmol/min/mg],kcat [s⁻¹],kcat/Km [M⁻¹ s⁻¹]
B1,120 ± 12,1.2,1.3,11000
B2,21 ± 4,0.098,0.11,5100
B3,79 ± 7,0.025,0.03,340
